Measured values taken from US20140314784A1.

Assays:
KO_1st loop [1] = test: flow cytometry, CHO cells transiently transfected with the construct, 6C7 at 0.1 µg/ml, dot plot SSC-A against PE-A
KO_3rd loop [2] = test: as above
KO_N-term [3] = test: as above
KO_1st loop [4] = test: flow cytometry, CHO cells transiently transfected with the construct, 6C7 at 0.05 µg/ml, dot plot SSC-A against PE-A
KO_3rd loop [5] = test: as above
KO_N-term [6] = test: as above

B1: 6C7 (antibody, V domains shown)
VH: QVQLVESGGGVVQPGRSLRLSCAASGFTFSNYVMHWVRQAPGKGLEWVAVIWYDGSNKYYADSVKGRFTISRDNSKNTLSLQMNSLRAEDTAVYYCERGEGYYGSGSRYRGYYYGMDVWGQGTTVTVSS
VL: DIQMTQSPSSLSASVGDRVTITCRASQGIRTDLGWYQQKPGKAPKRLIYAASSLQSGVPSRFSGSGSGTEFTLTISSLQPEDFATYYCLQHNSYPRTFGQGTKVEIK
A number in the positive gate (percent of cells) (KO_1st loop [1]) of 50.1, a number in the positive gate (percent of cells) (KO_3rd loop [2]) of 52.8 and a number in the positive gate (percent of cells) (KO_N-term [3]) of 52.8 were found for B1 in this work. It also gave a number in the positive gate (percent of cells) (KO_1st loop [4]) of 45.2, a number in the positive gate (percent of cells) (KO_3rd loop [5]) of 47 and a number in the positive gate (percent of cells) (KO_N-term [6]) of 49.2.
